The text below walks through data of patent US20230125301A1 (published 2023).

Where a chain is given by its changes, count along the chain named. Where two headings read alike, the source gives them in different places.

Assay in all cases: FACS binding, CHO-K1 cells
(Flow cytometry measures light scatter and fluorescence of single cells or particles in a stream.)

Test [1] concerns the target T1, human PD-L1 (human, UniProt Q9NZQ7 19-290).
Test [2] has as its target T1, human PD-L1. This is another data set of the same source.
In test [3] the target is T1, human PD-L1. The source holds these as a separate data set.

T1 sequence (Q9NZQ7 19-290): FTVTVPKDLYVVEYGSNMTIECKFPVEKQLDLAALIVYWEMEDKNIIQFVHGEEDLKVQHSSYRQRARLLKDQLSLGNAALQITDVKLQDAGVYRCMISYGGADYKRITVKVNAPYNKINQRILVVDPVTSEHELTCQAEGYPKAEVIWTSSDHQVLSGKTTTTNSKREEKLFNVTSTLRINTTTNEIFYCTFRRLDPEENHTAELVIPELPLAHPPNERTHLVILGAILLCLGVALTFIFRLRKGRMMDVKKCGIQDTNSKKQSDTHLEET

B1: CLDN18L-E2-pdl1a (bispecific antibody)
heavy: not shown
light: DIVMTQSPLSLPVTPGEPASISCKSSQTLLNSGNQKNYLTWYLQKPGQSPQLLIYWASTGESGVPDRFSGSGSGTDFTLKISRVEAEDVGVYYCQNAYFYPFTFGGGTKVEIKRTVAAPSVFIFPPSDEQLKSGTASVVCLLNNFYPREAKVQWKVDNALQSGNSQESVTEQDSKDSTYSLSSTLTLSKADYEKHKVYACEVTHQGLSSPVTKSFNRGECERKSSVESPPSPEVQLVESGGGLVQPGGSLRLSCAASGRTFVTYGMGWFRQAPGKGREFVSAISWSGSMTSYGDSVKGRFTISRDNAKNTLYLQMNSLRPEDTAVYYCAAALGAVVYTTREPYTYWGQGTLVTVSS
Turning to B1, a half-maximal response with human PD-L1 [1] (EC50) required 0.333 nM.

B2: CLDN18L-E4a-pdl1a (bispecific antibody)
heavy: not shown
light: B1 light with R222S, S224Y, S225G, V226P, E227P, S228G, S231G
B2: a half-maximal effect with human PD-L1 [1] (EC50) was put at 0.452 nM. The EC50 values of the last two molecules are within 1.5-fold of each other.

B3: CLDN18L-E4-pdl1a (bispecific antibody)
heavy: not shown
light: B1 light with R222S, S224Y, S225G, V226P, E227P
In the case of B3, the response with human PD-L1 [1] was half-maximal at 0.424 nM (EC50). This EC50 and that of the molecule before are within 1.5-fold of each other.

B4: CLDN18L-E2a-pdl1a (bispecific antibody)
heavy: not shown
light: B1 light with S225G, S228G, S231G
As to B4, the EC50 – broadly, the concentration needed to bring the measured effect to its halfway point – with human PD-L1 [1] is 0.439 nM.

B5: CLDN18L-Ea-pdl1a (bispecific antibody)
heavy: not shown
light: DIVMTQSPLSLPVTPGEPASISCKSSQTLLNSGNQKNYLTWYLQKPGQSPQLLIYWASTGESGVPDRFSGSGSGTDFTLKISRVEAEDVGVYYCQNAYFYPFTFGGGTKVEIKRTVAAPSVFIFPPSDEQLKSGTASVVCLLNNFYPREAKVQWKVDNALQSGNSQESVTEQDSKDSTYSLSSTLTLSKADYEKHKVYACEVTHQGLSSPVTKSFNRGECEPKSSDKGHGGPPGPEVQLVESGGGLVQPGGSLRLSCAASGRTFVTYGMGWFRQAPGKGREFVSAISWSGSMTSYGDSVKGRFTISRDNAKNTLYLQMNSLRPEDTAVYYCAAALGAVVYTTREPYTYWGQGTLVTVSS
With B5, the EC50 with human PD-L1 [1] turned out to be 0.394 nM.

B6: CLDN18L-E-pdl1a (bispecific antibody)
heavy: not shown
light: B5 light with G228T, G230T, G231S, G234S
With B6, the EC50 with human PD-L1 [2] came out at 0.262 nM; with human PD-L1 [3], 0.215 nM; with human PD-L1 [1], 0.34 nM.

B7: CLDN18L-G9-pdl1a (bispecific antibody)
heavy: not shown
light: DIVMTQSPLSLPVTPGEPASISCKSSQTLLNSGNQKNYLTWYLQKPGQSPQLLIYWASTGESGVPDRFSGSGSGTDFTLKISRVEAEDVGVYYCQNAYFYPFTFGGGTKVEIKRTVAAPSVFIFPPSDEQLKSGTASVVCLLNNFYPREAKVQWKVDNALQSGNSQESVTEQDSKDSTYSLSSTLTLSKADYEKHKVYACEVTHQGLSSPVTKSFNRGECGGGGSGGGSEVQLVESGGGLVQPGGSLRLSCAASGRTFVTYGMGWFRQAPGKGREFVSAISWSGSMTSYGDSVKGRFTISRDNAKNTLYLQMNSLRPEDTAVYYCAAALGAVVYTTREPYTYWGQGTLVTVSS
With B7, the 50% effective concentration (EC50) in the test with human PD-L1 [3] came out at 0.418 nM; with human PD-L1 [1], 0.591 nM.
